Data: patent publication US20250025478A1 (published 2025)
Each block holds one binder with its values, some of them ahead of it.

How the values were obtained:
[1] = target: T1, RNF213-TurboID (Homo sapiens (Human), UniProt Q63HN8 1-5207); assay: TurboID proximity biotinylation, streptavidin recovery, MS, SAINT express (FIG. 2B)
T1 construct: Recombined into HeLa FlpIn-TRex RNF213-KO cells; proximity-labelling bait; also called C-Turbo; 3×-FLAG-RNF213-TurboID; not shown: 3×-FLAG tag; TurboID biotin ligase at the C-terminus
T1 sequence (Q63HN8 whole entry N1045D): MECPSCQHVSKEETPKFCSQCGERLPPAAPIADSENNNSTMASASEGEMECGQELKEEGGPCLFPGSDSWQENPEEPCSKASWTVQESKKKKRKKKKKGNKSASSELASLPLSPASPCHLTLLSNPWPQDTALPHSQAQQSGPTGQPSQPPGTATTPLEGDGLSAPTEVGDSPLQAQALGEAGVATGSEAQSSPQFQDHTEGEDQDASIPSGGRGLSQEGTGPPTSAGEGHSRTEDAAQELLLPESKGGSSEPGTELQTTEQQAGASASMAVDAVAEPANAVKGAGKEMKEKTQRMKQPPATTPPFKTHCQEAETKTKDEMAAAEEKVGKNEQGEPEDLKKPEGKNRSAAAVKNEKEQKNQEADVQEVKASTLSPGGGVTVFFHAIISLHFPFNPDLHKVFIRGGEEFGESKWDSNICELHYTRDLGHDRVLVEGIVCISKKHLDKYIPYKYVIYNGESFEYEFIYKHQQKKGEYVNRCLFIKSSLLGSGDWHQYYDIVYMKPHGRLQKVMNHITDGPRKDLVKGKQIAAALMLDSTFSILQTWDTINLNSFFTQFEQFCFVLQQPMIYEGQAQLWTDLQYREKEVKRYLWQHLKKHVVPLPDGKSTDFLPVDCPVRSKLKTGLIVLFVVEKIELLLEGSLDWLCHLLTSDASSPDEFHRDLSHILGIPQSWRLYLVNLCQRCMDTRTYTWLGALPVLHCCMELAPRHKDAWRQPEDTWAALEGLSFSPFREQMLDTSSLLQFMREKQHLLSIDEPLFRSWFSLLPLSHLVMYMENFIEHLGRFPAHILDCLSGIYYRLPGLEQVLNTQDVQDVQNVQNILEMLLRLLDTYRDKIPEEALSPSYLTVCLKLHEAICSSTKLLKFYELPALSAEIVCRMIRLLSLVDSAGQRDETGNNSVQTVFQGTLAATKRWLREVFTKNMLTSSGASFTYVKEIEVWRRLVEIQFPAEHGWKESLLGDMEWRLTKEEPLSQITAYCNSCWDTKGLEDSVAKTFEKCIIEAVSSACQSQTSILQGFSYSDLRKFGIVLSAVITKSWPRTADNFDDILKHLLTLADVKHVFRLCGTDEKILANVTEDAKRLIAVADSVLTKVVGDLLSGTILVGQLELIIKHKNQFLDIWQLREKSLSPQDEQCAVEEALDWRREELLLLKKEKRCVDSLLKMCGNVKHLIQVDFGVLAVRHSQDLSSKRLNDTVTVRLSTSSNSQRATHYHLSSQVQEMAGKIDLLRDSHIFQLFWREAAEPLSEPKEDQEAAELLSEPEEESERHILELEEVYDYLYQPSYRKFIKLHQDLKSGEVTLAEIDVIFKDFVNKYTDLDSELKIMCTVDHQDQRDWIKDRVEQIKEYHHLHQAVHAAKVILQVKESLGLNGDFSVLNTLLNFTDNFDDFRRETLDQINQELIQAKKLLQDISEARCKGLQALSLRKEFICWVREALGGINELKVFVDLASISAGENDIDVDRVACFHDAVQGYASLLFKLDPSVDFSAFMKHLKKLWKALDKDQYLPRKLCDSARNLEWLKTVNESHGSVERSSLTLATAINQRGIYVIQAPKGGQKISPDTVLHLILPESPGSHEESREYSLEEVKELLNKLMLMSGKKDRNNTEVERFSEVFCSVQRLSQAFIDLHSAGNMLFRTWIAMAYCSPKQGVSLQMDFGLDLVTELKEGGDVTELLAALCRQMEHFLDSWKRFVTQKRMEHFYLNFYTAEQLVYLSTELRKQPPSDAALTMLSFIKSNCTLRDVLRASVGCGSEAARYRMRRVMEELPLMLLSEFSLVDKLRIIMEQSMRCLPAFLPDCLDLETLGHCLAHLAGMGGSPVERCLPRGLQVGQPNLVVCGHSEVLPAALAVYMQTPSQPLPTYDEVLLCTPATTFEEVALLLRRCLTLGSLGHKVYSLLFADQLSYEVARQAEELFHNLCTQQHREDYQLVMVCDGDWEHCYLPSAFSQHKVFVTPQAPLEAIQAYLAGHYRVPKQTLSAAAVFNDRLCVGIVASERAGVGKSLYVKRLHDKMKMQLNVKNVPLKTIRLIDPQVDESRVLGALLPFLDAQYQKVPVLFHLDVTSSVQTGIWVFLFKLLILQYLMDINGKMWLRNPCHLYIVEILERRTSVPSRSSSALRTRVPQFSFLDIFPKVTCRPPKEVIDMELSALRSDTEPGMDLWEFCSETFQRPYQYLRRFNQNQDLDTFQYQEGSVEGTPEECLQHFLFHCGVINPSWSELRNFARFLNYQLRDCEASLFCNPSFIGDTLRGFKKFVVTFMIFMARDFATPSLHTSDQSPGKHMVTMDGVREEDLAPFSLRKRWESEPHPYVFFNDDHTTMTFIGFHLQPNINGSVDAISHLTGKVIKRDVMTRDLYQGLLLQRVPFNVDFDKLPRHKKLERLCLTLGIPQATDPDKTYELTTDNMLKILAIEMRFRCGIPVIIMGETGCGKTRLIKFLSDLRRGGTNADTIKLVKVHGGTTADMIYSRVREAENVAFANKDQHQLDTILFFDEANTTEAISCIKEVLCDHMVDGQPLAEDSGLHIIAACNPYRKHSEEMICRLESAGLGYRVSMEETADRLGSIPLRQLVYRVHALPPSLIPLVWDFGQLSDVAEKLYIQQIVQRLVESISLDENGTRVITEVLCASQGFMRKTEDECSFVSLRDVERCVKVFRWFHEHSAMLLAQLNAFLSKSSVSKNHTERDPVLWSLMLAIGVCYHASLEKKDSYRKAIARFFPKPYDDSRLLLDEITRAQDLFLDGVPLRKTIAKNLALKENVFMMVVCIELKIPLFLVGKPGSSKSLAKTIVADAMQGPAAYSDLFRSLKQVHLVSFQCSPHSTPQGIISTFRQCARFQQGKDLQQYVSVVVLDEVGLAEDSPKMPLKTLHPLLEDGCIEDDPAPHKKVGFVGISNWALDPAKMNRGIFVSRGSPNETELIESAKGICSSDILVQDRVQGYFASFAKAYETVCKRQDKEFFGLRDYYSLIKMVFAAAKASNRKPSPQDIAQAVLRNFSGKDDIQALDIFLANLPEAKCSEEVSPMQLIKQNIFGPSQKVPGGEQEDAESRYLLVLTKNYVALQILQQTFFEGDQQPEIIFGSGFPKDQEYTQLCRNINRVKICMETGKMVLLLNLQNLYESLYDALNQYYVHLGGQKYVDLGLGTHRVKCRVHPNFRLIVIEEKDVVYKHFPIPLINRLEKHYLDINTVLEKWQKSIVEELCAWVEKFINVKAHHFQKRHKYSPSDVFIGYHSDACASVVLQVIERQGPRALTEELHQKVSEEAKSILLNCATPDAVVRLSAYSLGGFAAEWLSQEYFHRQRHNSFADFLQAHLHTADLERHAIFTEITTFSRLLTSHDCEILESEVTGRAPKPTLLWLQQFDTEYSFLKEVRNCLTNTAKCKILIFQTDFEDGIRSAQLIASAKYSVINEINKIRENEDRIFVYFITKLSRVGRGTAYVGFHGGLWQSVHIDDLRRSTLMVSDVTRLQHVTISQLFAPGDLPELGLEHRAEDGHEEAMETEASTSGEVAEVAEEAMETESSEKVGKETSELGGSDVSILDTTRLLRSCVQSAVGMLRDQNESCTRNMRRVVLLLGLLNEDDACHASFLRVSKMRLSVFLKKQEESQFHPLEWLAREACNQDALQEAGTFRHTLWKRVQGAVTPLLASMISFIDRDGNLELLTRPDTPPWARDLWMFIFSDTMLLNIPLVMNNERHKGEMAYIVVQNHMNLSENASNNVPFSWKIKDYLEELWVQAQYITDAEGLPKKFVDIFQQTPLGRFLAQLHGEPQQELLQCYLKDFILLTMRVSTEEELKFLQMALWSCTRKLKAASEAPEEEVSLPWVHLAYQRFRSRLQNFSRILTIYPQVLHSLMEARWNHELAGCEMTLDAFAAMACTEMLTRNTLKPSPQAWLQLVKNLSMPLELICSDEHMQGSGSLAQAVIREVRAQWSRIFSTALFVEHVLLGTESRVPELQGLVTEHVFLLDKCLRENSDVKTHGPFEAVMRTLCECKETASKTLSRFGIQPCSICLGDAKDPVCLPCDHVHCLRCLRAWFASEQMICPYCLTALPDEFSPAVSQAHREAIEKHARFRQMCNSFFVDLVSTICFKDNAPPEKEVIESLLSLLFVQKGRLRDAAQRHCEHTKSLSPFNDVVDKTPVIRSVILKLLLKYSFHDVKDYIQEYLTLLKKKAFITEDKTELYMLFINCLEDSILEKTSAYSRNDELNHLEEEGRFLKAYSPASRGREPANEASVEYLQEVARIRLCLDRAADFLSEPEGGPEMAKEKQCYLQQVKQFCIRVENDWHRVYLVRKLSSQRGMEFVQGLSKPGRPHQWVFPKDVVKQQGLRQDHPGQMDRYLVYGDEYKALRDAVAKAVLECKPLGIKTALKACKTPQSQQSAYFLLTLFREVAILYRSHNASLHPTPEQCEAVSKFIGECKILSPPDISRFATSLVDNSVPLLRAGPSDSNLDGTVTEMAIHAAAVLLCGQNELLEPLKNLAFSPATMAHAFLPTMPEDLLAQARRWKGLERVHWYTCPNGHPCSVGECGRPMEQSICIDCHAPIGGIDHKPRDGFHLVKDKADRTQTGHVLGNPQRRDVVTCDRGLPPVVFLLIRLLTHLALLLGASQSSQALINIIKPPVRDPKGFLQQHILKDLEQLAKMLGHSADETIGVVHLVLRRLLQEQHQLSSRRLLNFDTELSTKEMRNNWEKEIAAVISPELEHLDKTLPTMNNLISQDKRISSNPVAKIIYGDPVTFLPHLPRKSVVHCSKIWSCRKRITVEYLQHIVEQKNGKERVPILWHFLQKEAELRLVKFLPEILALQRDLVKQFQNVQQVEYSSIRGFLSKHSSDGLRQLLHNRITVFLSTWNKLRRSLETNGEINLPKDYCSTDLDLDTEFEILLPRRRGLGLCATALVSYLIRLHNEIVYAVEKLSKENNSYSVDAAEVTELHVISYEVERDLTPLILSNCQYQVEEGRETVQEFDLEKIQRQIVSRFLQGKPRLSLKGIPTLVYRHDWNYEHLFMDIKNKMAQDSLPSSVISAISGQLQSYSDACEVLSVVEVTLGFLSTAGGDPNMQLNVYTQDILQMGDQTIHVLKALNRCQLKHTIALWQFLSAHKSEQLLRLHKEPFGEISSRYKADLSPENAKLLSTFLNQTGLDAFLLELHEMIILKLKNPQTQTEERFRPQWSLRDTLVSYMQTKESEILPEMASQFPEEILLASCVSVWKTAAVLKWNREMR
Procedure: RNF213-interacting proteins were identified to evaluate how RNF213 regulates hypoxia sensitivity (FIG. 2A). TurboID-RNF213 (“N-Turbo”), RNF213-TurboID (“C-Turbo”), or TurboID alone (Control Turbo) were recombined into HeLa FlpIn-TRex RNF213-KO cells. These cells were labelled with biotin for 10 min., and biotinylated proteins were recovered on streptavidin, digested with trypsin, and analyzed by MS (FIG. 2A). Proteins were ranked as potential binding partners by using the SAINT express algorithm³⁶ Immunoblotting (FIG. 9A) and silver staining (FIG. 9B) confirmed that similar amounts of each sample were submitted for analysis. Relatively few proteins labelled by N-Turbo were labelled to an extent greater than their labeling by Control-Turbo (FIG. 9C). […] Among the other top candidates were the major K63-deubiquitinase and NF-κB regulator CYLD and its interacting protein SPATA2 (FIG. 2B, orange-colored arrows). […] Other top C-Turbo interactors included proteins involved in VEGF signaling, which is induced in hypoxia (FLII, MYOF^{39,40}), inflammation and atherosclerosis (MAP4K4, SPTLC1^{41,42}), lipotoxicity (SPTLC1, ALDH1B1^{43,44}), ischemia response (CPEB4⁴⁵), and stroke (SARS2⁴⁶). Top N-Turbo interactors included CYP51A1, which plays a crucial role in cholesterol metabolism and atherosclerosis⁴⁷.
Cells were cultured in standard media but with 10% tetracycline (Tet)-free FBS (Clonetech) for at least 1 week. Tet-free/biotin-free FBS was generated by incubating Tet-free FBS with sterile streptavidin beads overnight followed by centrifugation to remove the beads. N-Turbo, C-Turbo, and Turbo proteins were induced by adding 1 μg/ml Dox to cells for 36 hours. For the last ten min. of incubation, 500 μM of biotin was added to the medium.

[2] = target: T2, TurboID-RNF213 (Homo sapiens (Human), UniProt Q63HN8 1-5207); assay: TurboID proximity biotinylation, streptavidin recovery, MS, SAINT express (FIG. 9C)
T2 construct: Recombined into HeLa FlpIn-TRex RNF213-KO cells; proximity-labelling bait; also called N-Turbo; not shown: TurboID biotin ligase at the N-terminus
Procedure: RNF213-interacting proteins were identified to evaluate how RNF213 regulates hypoxia sensitivity (FIG. 2A). TurboID-RNF213 (“N-Turbo”), RNF213-TurboID (“C-Turbo”), or TurboID alone (Control Turbo) were recombined into HeLa FlpIn-TRex RNF213-KO cells. These cells were labelled with biotin for 10 min., and biotinylated proteins were recovered on streptavidin, digested with trypsin, and analyzed by MS (FIG. 2A). Proteins were ranked as potential binding partners by using the SAINT express algorithm³⁶ Immunoblotting (FIG. 9A) and silver staining (FIG. 9B) confirmed that similar amounts of each sample were submitted for analysis. Relatively few proteins labelled by N-Turbo were labelled to an extent greater than their labeling by Control-Turbo (FIG. 9C). […] Among the other top candidates were the major K63-deubiquitinase and NF-κB regulator CYLD and its interacting protein SPATA2 (FIG. 2B, orange-colored arrows). […] Other top C-Turbo interactors included proteins involved in VEGF signaling, which is induced in hypoxia (FLII, MYOF^{39,40}), inflammation and atherosclerosis (MAP4K4, SPTLC1^{41,42}), lipotoxicity (SPTLC1, ALDH1B1^{43,44}), ischemia response (CPEB4⁴⁵), and stroke (SARS2⁴⁶). Top N-Turbo interactors included CYP51A1, which plays a crucial role in cholesterol metabolism and atherosclerosis⁴⁷. […]

[3] = target: T3, 3×-FLAG-RNF213 (Homo sapiens (Human), UniProt Q63HN8 1-5207, phosphotyrosine at Y1275 (found by MS in cells; phosphorylated by ABL1 in vitro)); assay: co-immunoprecipitation/immunoblot (FIG. 2D)
T3 construct: Expressed from pcDNA5-3x-FLAG-RNF213; also called WT-RNF213; wild type RNF213; not shown: 3×-FLAG tag

B1: PTP1B (PTPN1) (enzyme, Homo sapiens, UniProt P18031 1-435, looked up)
chain: MEMEKEFEQIDKSGSWAAIYQDIRHEASDFPCRVAKLPKNKNRNRYRDVSPFDHSRIKLHQEDNDYINASLIKMEEAQRSYILTQGPLPNTCGHFWEMVWEQKSRGVVMLNRVMEKGSLKCAQYWPQKEEKEMIFEDTNLKLTLISEDIKSYYTVRQLELENLTTQETREILHFHYTTWPDFGVPESPASFLNFLFKVRESGSLSPEHGPVVVHCSAGIGRSGTFCLADTCLLLMDKRKDPSSVDIKKVLLEMRKFRMGLIQTADQLRFSYLAVIEGAKFIMGDSSVQDQWKELSHEDLEPPPEHIPPPPRPPKRILEPHNGKCREFFPNHQWVKEETQEDKDCPIKEEKGSPLNAAPYGIESMSQDTEVRSRVVGGSLRGAQAASPAKGEPSLPEKDEDHALSYWKPFLVNMCVATVLTAGAYLCYRFLFNSNT
notes: Endogenous protein in cell lysates; also called Tyrosine-protein phosphatase non-receptor type 1
binding result [1]: binds

B2: CYP51A1 (enzyme, Homo sapiens, UniProt Q16850-2 1-404, looked up)
chain: MVGKTFTYLLGSDAAALLFNSKNEDLNAEDVYSRLTTPVFGKGVAYDVPNPVFLEQKKMLKSGLNIAHFKQHVSIIEKETKEYFESWGESGEKNVFEALSELIILTASHCLHGKEIRSQLNEKVAQLYADLDGGFSHAAWLLPGWLPLPSFRRRDRAHREIKDIFYKAIQKRRQSQEKIDDILQTLLDATYKDGRPLTDDEVAGMLIGLLLAGQHTSSTTSAWMGFFLARDKTLQKKCYLEQKTVCGENLPPLTYDQLKDLNLLDRCIKETLRLRPPIMIMMRMARTPQTVAGYTIPPGHQVCVSPTVNQRLKDSWVERLDFNPDRYLQDNPASGEKFAYVPFGAGRHRCIGENFAYVQIKTIWSTMLRLYEFDLIDGYFPTVNYTTMIHTPENPVIRYKRRSK
notes: Endogenous protein found by proximity labelling/MS; also called Lanosterol 14-alpha demethylase
binding result [2]: binds

Results, then the binder that gave them:

binding result [1]: binds
binding result [3]: binds
B3: SPATA2 (other, human, UniProt Q9UM82 1-520, looked up)
chain: MGKPSSMDTKFKDDLFRKYVQFHESKVDTTTSRQRPGSDECLRVAASTLLSLHKVDPFYRFRLIQFYEVVESSLRSLSSSSLRALHGAFSMLETVGINLFLYPWKKEFRSIKTYTGPFVYYVKSTLLEEDIRAILSCMGYTPELGTAYKLRELVETLQVKMVSFELFLAKVECEQMLEIHSQVKDKGYSELDIVSERKSSAEDVRGCSDALRRRAEGREHLTASMSRVALQKSASERAAKDYYKPRVTKPSRSVDAYDSYWESRKPPLKASLSLRKEPVATDVGDDLKDEIIRPSPSLLTMASSPHGSPDVLPPASPSNGPALLRGTYFSTQDDVDLYTDSEPRATYRRQDALRPDVWLLRNDAHSLYHKRSPPAKESALSKCQSCGLSCSSSLCQRCDSLLTCPPASKPSAFPSKASTHDSLAHGASLREKYPGQTQGLDRLPHLHSKSKPSTTPTSRCGFCNRPGATNTCTQCSKVSCDACLSAYHYDPCYKKSELHKFMPNNQLNYKSTQLSHLVYR
notes: Endogenous protein in cell lysates

binding result [1]: binds
binding result [3]: binds
B4: CYLD (enzyme, Homo sapiens, UniProt Q9NQC7-2 1-953, looked up)
chain: MSSGLWSQEKVTSPYWEERIFYLLLQECSVTDKQTQKLLKVPKGSIGQYIQDRSVGHSRIPSAKGKKNQIGLKILEQPHAVLFVDEKDVVEINEKFTELLLAITNCEERFSLFKNRNRLSKGLQIDVGCPVKVQLRSGEEKFPGVVRFRGPLLAERTVSGIFFGVELLEEGRGQGFTDGVYQGKQLFQCDEDCGVFVALDKLELIEDDDTALESDYAGPGDTMQVELPPLEINSRVSLKVGETIESGTVIFCDVLPGKESLGYFVGVDMDNPIGNWDGRFDGVQLCSFACVESTILLHINDIIPESVTQERRPPKLAFMSRGVGDKGSSSHNKPKATGSTSDPGNRNRSELFYTLNGSSVDSQPQSKSKNTWYIDEVAEDPAKSLTEISTDFDRSSPPLQPPPVNSLTTENRFHSLPFSLTKMPNTNGSIGHSPLSLSAQSVMEELNTAPVQESPPLAMPPGNSHGLEVGSLAEVKENPPFYGVIRWIGQPPGLNEVLAGLELEDECAGCTDGTFRGTRYFTCALKKALFVKLKSCRPDSRFASLQPVSNQIERCNSLAFGGYLSEVVEENTPPKMEKEGLEIMIGKKKGIQGHYNSCYLDSTLFCLFAFSSVLDTVLLRPKEKNDVEYYSETQELLRTEIVNPLRIYGYVCATKIMKLRKILEKVEAASGFTSEEKDPEEFLNILFHHILRVEPLLKIRSAGQKVQDCYFYQIFMEKNEKVGVPTIQQLLEWSFINSNLKFAEAPSCLIIQMPRFGKDFKLFKKIFPSLELNITDLLEDTPRQCRICGGLAMYECRECYDDPDISAGKIKQFCKTCNTQVHLHPKRLNHKYNPVSLPKDLPDWDWRHGCIPCQNMELFAVLCIETSHYVAFVKYGKDDSAWLFFDSMADRDGGQNGFNIPQVTPCPEVGEYLKMSLEDLHSLDSRRIQGCARRLLCDAYMCMYQSPTMSLYK
notes: Endogenous protein in cell lysates; the isoform is the one matched by MS; also called Ubiquitin carboxyl-terminal hydrolase CYLD

binding result [1]: binds
B5: USP15 (enzyme, human, UniProt Q9Y4E8 2-981, looked up)
chain: AEGGAADLDTQRSDIATLLKTSLRKGDTWYLVDSRWFKQWKKYVGFDSWDKYQMGDQNVYPGPIDNSGLLKDGDAQSLKEHLIDELDYILLPTEGWNKLVSWYTLMEGQEPIARKVVEQGMFVKHCKVEVYLTELKLCENGNMNNVVTRRFSKADTIDTIEKEIRKIFSIPDEKETRLWNKYMSNTFEPLNKPDSTIQDAGLYQGQVLVIEQKNEDGTWPRGPSTPKSPGASNFSTLPKISPSSLSNNYNNMNNRNVKNSNYCLPSYTAYKNYDYSEPGRNNEQPGLCGLSNLGNTCFMNSAIQCLSNTPPLTEYFLNDKYQEELNFDNPLGMRGEIAKSYAELIKQMWSGKFSYVTPRAFKTQVGRFAPQFSGYQQQDCQELLAFLLDGLHEDLNRIRKKPYIQLKDADGRPDKVVAEEAWENHLKRNDSIIVDIFHGLFKSTLVCPECAKISVTFDPFCYLTLPLPMKKERTLEVYLVRMDPLTKPMQYKVVVPKIGNILDLCTALSALSGIPADKMIVTDIYNHRFHRIFAMDENLSSIMERDDIYVFEININRTEDTEHVIIPVCLREKFRHSSYTHHTGSSLFGQPFLMAVPRNNTEDKLYNLLLLRMCRYVKISTETEETEGSLHCCKDQNINGNGPNGIHEEGSPSEMETDEPDDESSQDQELPSENENSQSEDSVGGDNDSENGLCTEDTCKGQLTGHKKRLFTFQFNNLGNTDINYIKDDTRHIRFDDRQLRLDERSFLALDWDPDLKKRYFDENAAEDFEKHESVEYKPPKKPFVKLKDCIELFTTKEKLGAEDPWYCPNCKEHQQATKKLDLWSLPPVLVVHLKRFSYSRYMRDKLDTLVDFPINDLDMSEFLINPNAGPCRYNLIAVSNHYGGMGGGHYTAFAKNKDDGKWYYFDDSSVSTASEDQIVSKAAYVLFYQRQDTFSGTGFFPLDRETKGASAATGIPLESDEDSNDNDNDIENENCMHTN
notes: Endogenous protein
